These results are taken from US20130183334A1.

What all share (assay): cell-based or functional assay
Test [1] deals with HIV-1 NL4-3 Gag with HIV-1/SIVmac239 p6 chimera 17-23(b) (HIV-1 (NL4-3); SIVmac239).
The target of test [2] is HIV-1 NL4-3 Gag with HIV-1/SIVmac239 p6 chimera 17-24 (HIV-1 (NL4-3); SIVmac239).
Test [3] addresses HIV-1 NL4-3 Gag with HIV-1/SIVmac239 p6 chimera 17-25 (HIV-1 (NL4-3); SIVmac239).
For test [4], the target named is HIV-1 NL4-3 Gag with HIV-1/SIVmac239 p6 chimera 17-26 (HIV-1 (NL4-3); SIVmac239).
The target of test [5] is HIV-1 NL4-3 Gag with HIV-1/SIVmac239 p6 chimera 17-27 (HIV-1 (NL4-3); SIVmac239).
The target in test [6] is HIV-1 NL4-3 Gag with HIV-1/SIVmac239 p6 chimera 17-28 (HIV-1 (NL4-3); SIVmac239).
For test [7], the target named is HIV-1 NL4-3 Gag with HIV-1/SIVmac239 p6 chimera 17-38 (HIV-1 (NL4-3); SIVmac239).
Test [8] concerns the target HIV-1 NL4-3 Gag with HIV-1/SIVmac239 p6 chimera 17-48 (HIV-1 (NL4-3); SIVmac239).
The target in test [9] is HIV-1 NL4-3 Gag with p6 point mutation F15A (HIV-1 (NL4-3)) (UniProt P12493).
For test [10], the target named is HIV-1 NL4-3 Gag with p6 point mutation F17A (HIV-1 (NL4-3)) (UniProt P12493).

“HIV-1 Vpr, myc-tagged (expression vector pcVpr.myc)”: the Vpr packaging into virions (immunoblot of pelleted virions) (fold of wild-type) in [1], in [2], in test [3], in test [4], in test [5] and in [7] was 0.33 throughout. The Vpr packaging into virions (immunoblot of pelleted virions) (fold of wild-type) in test [8] is 0.33. The substance further returned a Vpr packaging into virions (immunoblot of pelleted virions) (% of wild-type) in test [6] of 70. Also, the Vpr packaging into virions (immunoblot of pelleted virions) (% decrease against wild-type) in test [9] and in [10] was 80 throughout.
